The text below walks through data of the RNAGym collection of RNA variant scans (doi:10.1101/gr.219683.116).

B1: mRNA-splicing (parent)
chain: AGUUGCUGCUGGGAGCUCCAGCACAGUGAAAUGGACAGAAGGGCAGAGCAA

This data set covers variants of B1. Description: exon inclusion enrichment index; higher = more inclusion; WT1 exon 5 minigene, HEK293.
AGUUCACACAGGGAGCUCCAGCACAGUGAAAUGGACAGGUGGGCAGAGCAA: the “exon inclusion enrichment index” value was 0.0129. Consider AGUUGCUGCUGGGAGCUCCAGCACAACGAAAUGGACAGAAGGGCAGAGCAA, for which the “exon inclusion enrichment index” value is 0.0175. The value for AGUUACCACCGGGAGCUCCAGCACAGUGAAAUGGACAGAAGGGCACGGCAA was 2.57; that for AGUUGCUGCUGGGCGCUCCAGCACAGUGAAAUGGACAGAAGGGCAGAGCAA was 0.099. Consider AGUUCACCGAGGGAGCUCCAGCACAGUGAAAUGGACAGAAGGGCAGAGCAA, for which the “exon inclusion enrichment index” value worked out at 2.51. Regarding AGUUGACGGCGGGAGCUCCAGCACAGUGAAAUGGACAGAAGGGCAGAGCAA, the “exon inclusion enrichment index” value was 2.55.

Regarding AGUUCUUCUCGGGAGCUCCUACACAGUGAAAUGGACAGAAGGGCAGAGCAA, the “exon inclusion enrichment index” value worked out at 0.91. Turning to AGUUCUUCUCGGGAGCUCCAGCACAGUACAAUGGACAGAAGGGCAGAGCAA, the “exon inclusion enrichment index” value is 1.12. For AGUUGCUGCUGAUAGCUCCAGCACAGUGAAAUGGACAGAAGGGCAGAGCAA, the “exon inclusion enrichment index” value amounted to 0.459. Under AGUGUGGGAUGGGAGCUCCAGCACAGUGAAAUGGACAGAAGGGCAGAGCAA stands 0.0442; under AGUUUCUUUUGGGAGCUCCAGCACAGUGAAGGGGACAGAAGGGCAGAGCAA, 0.0767; under AUCUAUAUAUGGGAGCUCCAGCACAGUGAAAUGGACAGAAGGGCAGAGCAA, 0.557. For the variant AGUUGCUGCUGGGAGCUCCAUAACAGUGAAAUGGACAGAAGGGCAGAGCAA, the “exon inclusion enrichment index” value was 1.05.

Regarding AGUUACCACCGGGAGCUCCAGCACAGUGAAAUGGACAGAAGGUAAGAGCAA, the “exon inclusion enrichment index” value came to 0.058. AGUUCUUCUCGGGAGCUCCAGCACAGUGAAAUGGACAGAACGGCAGAGCAA: the “exon inclusion enrichment index” value was determined as 3.06. For the variant AGUUCACACAGGGAGCUCCAGCACAGUGAAAUGGACAGAAGGCAAGAGCAA, the “exon inclusion enrichment index” value was 0.602. As for AGUUCUUCUCGGGAGCUCCAGCAUCGUGAAAUGGACAGAAGGGCAGAGCAA, the “exon inclusion enrichment index” value was found to be 3.44. On to AGUUCGCUCCGGGAGCUCCAGCACAGUGAAAUGGACAGAAGGGCAGAGCAA, for which the “exon inclusion enrichment index” value came out at 2.76. Consider AGUUGACGACGGGAGCUCCAGCACAGUGAAAUGGACAGAAUGGCAGAGCAA, for which the “exon inclusion enrichment index” value was determined as 3.1.

AGUUAGGGAUGGGAGCUCCAGCACAGUGAAAUGGAAAGAAGGGCAGAGCAA: the “exon inclusion enrichment index” value came to 0.000983.

Take AGUUAUAUAUGGGAGCUCCAGCACAGUGCAAUGGACAGAAGGGCAGAGCAA: the “exon inclusion enrichment index” value is 0.0477.

For AGUUCACACAGGGAGCUCCAGCACAGUGAAAUGGACAGAAGGGAUGAGCAA, the “exon inclusion enrichment index” value is 0.339.

Take AGUUUCUUUUGGGAGCUCCAGCACAGUGAAAUGGACAGAUGGGCAGAGCAA: the “exon inclusion enrichment index” value is 0.0931.

Take AGUUGCAGACGGGAGCUCCAGCACAGUGAAAUGGACAGAAGGGCAGAGCAA: the “exon inclusion enrichment index” value turned out to be 1.94. With AGUUCACACAGGGAGCUCCAGCACAACGAAAUGGACAGAAGGGCAGAGCAA, the “exon inclusion enrichment index” value worked out at 0.555. Under AGUUGAAGAAGGGAGCGGCAGCACAGUGAAAUGGACAGAAGGGCAGAGCAA stands 0.391; under AGUUCACACAGGGAGCUCCAGCACAGUGAAAUGGACAGAAGUUCAGAGCAA, 0.305; under AGUUCUUCUCGGGAGCAACAGCACAGUGAAAUGGACAGAAGGGCAGAGCAA, 1.32. Under AGUUCGCGCCGGGAGCUCCAGCACAGUGCGAUGGACAGAAGGGCAGAGCAA stands 5.17; under AGUUGCUGCUUGGAGCUCCAGCACAGUGAAAUGGACAGAAGGGCAGAGCAA, 2.22. Under AGUUGAAGAAGGGAGCUCCAGCACAGUGAAAUGGACAGAAGGGCGUAGCAA stands 0.543; under AGUUCGCGCCGGGAGCUCCAGCACAGUGAAAUGUGCAGAAGGGCAGAGCAA, 1.24; under AAGUUCUUUUGGGAGCUCCAGCACAGUGAAAUGGACAGAAGGGCAGAGCAA, 0.0993. As to AGUUCACACAGGGAGCAUCAGCACAGUGAAAUGGACAGAAGGGCAGAGCAA, the “exon inclusion enrichment index” value is 0.0447. As to AGUUAGGGAUGGCGGCUCCAGCACAGUGAAAUGGACAGAAGGGCAGAGCAA, the “exon inclusion enrichment index” value amounted to 0.00374.

In the case of AGUUCUUCUCGGGAGCUCCAGCAGUGUGAAAUGGACAGAAGGGCAGAGCAA, the “exon inclusion enrichment index” value was determined as 2.32. As for AGUUCGAGCCGGGAGCUCCAGCACAGUGAAAUGGACAGAAGGGCAGAGCAA, the “exon inclusion enrichment index” value turned out to be 2.53. As for AGUUUCUUUUGGGAGCUCCAGCACAGUGAAAUGGACAGAAGGCCAGAGCAA, the “exon inclusion enrichment index” value turned out to be 0.199. AGUUGAAGAAGGGAGCUCCAGCACAGUGAAAUGGAAAGAAGGGCAGAGCAA: the “exon inclusion enrichment index” value turned out to be 0.531. In the case of AGUUGAGCACGGGAGCUCCAGCACAGUGAAAUGGACAGAAGGGCAGAGCAA, the “exon inclusion enrichment index” value turned out to be 0.907.

For the variant AGUUACCACCGGGAGCUCCAGCAAGGUGAAAUGGACAGAAGGGCAGAGCAA, the “exon inclusion enrichment index” value worked out at 2.4. As to AGUUCCAACAGGGAGCUCCAGCACAGUGAAAUGGACAGAAGGGCAGAGCAA, the “exon inclusion enrichment index” value was 0.0423. Take AGCGGAAGAAGGGAGCUCCAGCACAGUGAAAUGGACAGAAGGGCAGAGCAA: the “exon inclusion enrichment index” value worked out at 0.667. Regarding AGUACGCGCCGGGAGCUCCAGCACAGUGAAAUGGACAGAAGGGCAGAGCAA, the “exon inclusion enrichment index” value stood at 2.75. Take AGUUGCUGCUGGGACGUCCAGCACAGUGAAAUGGACAGAAGGGCAGAGCAA: the “exon inclusion enrichment index” value was 0.178.

For AGUUCACCUCGGGAGCUCCAGCACAGUGAAAUGGACAGAAGGGCAGAGCAA, the “exon inclusion enrichment index” value is 1.98.

Turning to AGUUCACACAGGGAGCUCCAGCACAGUGAGUUGGACAGAAGGGCAGAGCAA, the “exon inclusion enrichment index” value was found to be 0.018. In the case of AGUUAGGGAUGGGAGCUCCAGCACAGUGAAAUGGACAGAAGGGCUUAGCAA, the “exon inclusion enrichment index” value stood at 0.000766.

In the case of AGUUAGUGAUGGGAGCUCCAGCACAGUGAAAUGGACAGAAGGGCAGAGCAA, the “exon inclusion enrichment index” value was 0.036. The value for AGUUCACACAGGGAGCUCCACAACAGUGAAAUGGACAGAAGGGCAGAGCAA was 0.0674. With AGUUGAAGAAGGGAGCUCCAGUCCAGUGAAAUGGACAGAAGGGCAGAGCAA, the “exon inclusion enrichment index” value was 0.267.
